Data set [1] deals with T1, 43-mer covering the stalk region of CD95L (residue 103 to residue 145).
T1 chain: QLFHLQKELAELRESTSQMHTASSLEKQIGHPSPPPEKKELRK

Another data set addresses T2, Recombinant Ig-CD95L.
T2 chain: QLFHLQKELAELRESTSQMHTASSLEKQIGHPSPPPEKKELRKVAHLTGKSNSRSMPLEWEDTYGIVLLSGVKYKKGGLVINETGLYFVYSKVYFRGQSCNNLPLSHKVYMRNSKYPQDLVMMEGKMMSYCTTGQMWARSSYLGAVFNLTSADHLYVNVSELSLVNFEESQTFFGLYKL

B1: MMP2 (protein)
chain: YNFFPRKPKWDKNQITYRIIGYTPDLDPETVDDAFARAFQVWSDVTPLRFSRIHDGEADIMINFGRWEHGDGYPFDGKDGLLAHAFAPGTGVGGDSHFDDDELWTLGEGQVVRVKYGNADGEYCKFPFLFNGKEYNSCTDTGRSDGFLWCSTTYNFEKDGKYGFCPHEALFTMGGNAEGQPCKFPFRFQGTSYDSCTTEGRTDGYRWCGTTEDYDRDKKYGFCPETAMSTVGGNSEGAPCVFPFTFLGNKYESCTSAGRSDGKMWCATTANYDDDRKWGFCPDQGYSLFLVAAHEFGHAMGLEHSQDPGALMAPIYTYTKNFRLSQDDIKGIQELYGASPDIDLGTGPTPTLGPVTPEICKQDIVFDGIAQIRGEIFFFKDRFIWRTVTPRDKPMGPLLVATFWPELPEKIDAVYEAPQEEKAVFFAGNEYWIYSASTLERGYPKPLTSLGLPPDVQRVDAAFNWSKNKKTYIFAGDKFWRYNEVKKKMDPGFPKLIADAWNAIPDNLDAVVDLQGGGHSYFFKGAYYLKLENQSLKSVKFGSIKSDWLGC
Regarding B1, in data set [1], the “percentage of degradation of the 43-mer (LC-MS/MS)” value (from here on “percentage”) is “more of 20% of cleavage”. Moreover, the “cleavage of Ig-CD95L (western blotting)” value with Recombinant Ig-CD95L was “Using this Ig-CD95L, we showed that MMP2 and MMP3 can cleave CD95L”.

B2: ADAM10 (protein)
chain: TTSAEKNTCQLYIQTDHLFFKYYGTREAVIAQISSHVKAIDTIYQTTDFSGIRNISFMVKRIRINTTADEKDPTNPFRFPNIGVEKFLELNSEQNHDDYCLAYVFTDRDFDDGVLGLAWVGAPSGSSGGICEKSKLYSDGKKKSLNTGIITVQNYGSHVPPKVSHITFAHEVGHNFGSPHDSGTECTPGESKNLGQKENGNYIMYARATSGDKLNNNKFSLCSIRNISQVLEKKRNNCFVESGQPICGNGMVEQGEECDCGYSDQCKDECCFDANQPEGRKCKLKPGKQCSPSQGPCCTAQCAFKSKSEKCRDDSDCAREGICNGFTALCPASDPKPNFTDCNRHTQVCINGQCAGSICEKYGLEECTCASSDGKDDKELCHVCCMKKMDPSTCASTGSVQWSRHFSGRTITLQPGSPCNDFRGYCDVFMRCRLVDADGPLARLKKAIFSPELYENIAE
Turning to B2, the “percentage” value in data set [1] was “more of 20% of cleavage”.

B3: MMP12 (protein)
chain: GPVWRKHYITYRINNYTPDMNREDVDYAIRKAFQVWSNVTPLKFSKINTGMADILVVFARGAHGDFHAFDGKGGILAHAFGPGSGIGGDAHFDEDEFWTTHSGGTNLFLTAVHEIGHSLGLGHSSDPKAVMFPTYKYVDINTFRLSADDIRGIQSLYGDPKENQRLPNPDNSEPALCDPNLSFDAVTTVGNKIFFFKDRFFWLKVSERPKTSVNLISSLWPTLPSGIEAAYEIEARNQVFLFKDDKYWLISNLRPEPNYPKSIHSFGFPNFVKKIDAAVFNPRFYRTYFFVDNQYWRYDERRQMMDPGYPKLITKNFQGIGPKIDAVFYSKNKYYYFFQGSNQFEYDFLLQRITKTLKSNSWFGC
B3: the “percentage” value in data set [1] is on record as “more of 20% of cleavage”.

B4: MMP7 (protein)
chain: YSLFPNSPKWTSKVVTYRIVSYTRDLPHITVDRLVSKALNMWGKEIPLHFRKVVWGTADIMIGFARGAHGDSYPFDGPGNTLAHAFAPGTGLGGDAHFDEDERWTDGSSLGINFLYAATHELGHSLGMGHSSDPNAVMYPTYGNGDPQNFKLSQDDIKGIQKLYGKRSNSRKK
B4: the “percentage” value in data set [1] is “more of 20% of cleavage”.

The values are drawn from patent US20250163169.
